# Reference: IntAct's records for PubMed 18378898
# B1: Growth/differentiation factor 11 (Mus musculus), Q9Z1W4 (parent)
# chain: MVLAAPLLLGFLLLALELRPRGEAAEGPAAAAAAAAAAAGVGGERSSRPAPSAPPEPDGCPVCVWRQHSRELRLESIKSQILSKLRLKEAPNISREVVKQLLPKAPPLQQILDLHDFQGDALQPEDFLEEDEYHATTETVISMAQETDPAVQTDGSPLCCHFHFSPKVMFTKVLKAQLWVYLRPVPRPATVYLQILRLKPLTGEGTAGGGGGGRRHIRIRSLKIELHSRSGHWQSIDFKQVLHSWFRQPQSNWGIEINAFDPSGTDLAVTSLGPGAEGLHPFMELRVLENTKRSRRNLGLDCDEHSSESRCCRYPLTVDFEAFGWDWIIAPKRYKANYCSGQCEYMFMQKYPHTHLVQQANPRGSAGPCCTPTKMSPINMLYFNDKQQIIYGKIPGMVVDRCGCS
# partner: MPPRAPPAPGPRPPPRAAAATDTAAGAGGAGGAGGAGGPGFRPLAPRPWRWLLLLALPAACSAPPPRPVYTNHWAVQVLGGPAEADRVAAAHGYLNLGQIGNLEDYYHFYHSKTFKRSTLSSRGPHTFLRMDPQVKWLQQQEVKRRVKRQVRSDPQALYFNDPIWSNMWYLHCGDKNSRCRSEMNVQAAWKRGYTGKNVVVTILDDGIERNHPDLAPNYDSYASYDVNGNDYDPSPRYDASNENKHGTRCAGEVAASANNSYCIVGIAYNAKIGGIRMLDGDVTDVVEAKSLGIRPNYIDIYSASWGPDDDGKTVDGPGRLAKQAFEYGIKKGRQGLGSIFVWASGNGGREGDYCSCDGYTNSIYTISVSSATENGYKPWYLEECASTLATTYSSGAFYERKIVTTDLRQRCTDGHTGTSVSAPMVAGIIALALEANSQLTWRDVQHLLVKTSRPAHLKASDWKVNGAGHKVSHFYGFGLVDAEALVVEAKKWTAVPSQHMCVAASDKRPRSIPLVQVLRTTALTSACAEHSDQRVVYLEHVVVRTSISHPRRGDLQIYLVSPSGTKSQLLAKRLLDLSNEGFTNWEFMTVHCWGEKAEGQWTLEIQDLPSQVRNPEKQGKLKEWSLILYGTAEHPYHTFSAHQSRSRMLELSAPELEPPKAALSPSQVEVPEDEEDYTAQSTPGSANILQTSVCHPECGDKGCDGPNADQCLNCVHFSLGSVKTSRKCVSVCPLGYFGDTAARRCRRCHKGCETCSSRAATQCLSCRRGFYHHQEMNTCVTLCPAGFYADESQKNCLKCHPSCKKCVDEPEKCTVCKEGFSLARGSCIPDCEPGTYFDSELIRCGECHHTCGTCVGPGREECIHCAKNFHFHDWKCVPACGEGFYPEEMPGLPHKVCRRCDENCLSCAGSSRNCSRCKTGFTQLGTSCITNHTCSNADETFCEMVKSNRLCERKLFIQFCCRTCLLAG
# B2: Growth/differentiation factor 11 (Mus musculus), Q9Z1W4 (parent)
# chain: B1 chain
# partner: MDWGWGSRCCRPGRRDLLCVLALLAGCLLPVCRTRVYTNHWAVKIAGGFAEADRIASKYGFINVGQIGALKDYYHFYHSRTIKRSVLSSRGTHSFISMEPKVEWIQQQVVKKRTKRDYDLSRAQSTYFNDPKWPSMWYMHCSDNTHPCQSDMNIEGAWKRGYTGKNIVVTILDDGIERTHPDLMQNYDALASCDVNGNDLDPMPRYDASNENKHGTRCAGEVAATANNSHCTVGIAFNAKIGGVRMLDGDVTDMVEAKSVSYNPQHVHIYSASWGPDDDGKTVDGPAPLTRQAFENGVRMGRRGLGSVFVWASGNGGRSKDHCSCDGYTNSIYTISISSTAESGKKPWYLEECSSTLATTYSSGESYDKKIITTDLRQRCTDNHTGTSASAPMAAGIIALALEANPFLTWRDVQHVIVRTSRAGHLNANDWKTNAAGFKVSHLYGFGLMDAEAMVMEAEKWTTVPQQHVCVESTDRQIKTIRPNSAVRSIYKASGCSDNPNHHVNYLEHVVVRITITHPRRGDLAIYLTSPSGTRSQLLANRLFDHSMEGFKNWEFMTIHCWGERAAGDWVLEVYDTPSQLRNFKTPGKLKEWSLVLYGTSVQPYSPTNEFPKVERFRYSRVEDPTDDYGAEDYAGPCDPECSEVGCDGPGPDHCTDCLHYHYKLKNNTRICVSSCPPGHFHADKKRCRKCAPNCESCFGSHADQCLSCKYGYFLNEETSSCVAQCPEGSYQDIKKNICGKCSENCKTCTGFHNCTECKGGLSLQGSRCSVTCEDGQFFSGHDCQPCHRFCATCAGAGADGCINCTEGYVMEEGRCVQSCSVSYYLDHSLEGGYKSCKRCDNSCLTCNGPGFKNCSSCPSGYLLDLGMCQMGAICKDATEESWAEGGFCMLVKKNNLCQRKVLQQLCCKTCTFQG
# B3: Growth/differentiation factor 11 (Mus musculus), Q9Z1W4 (parent)
# chain: B1 chain
# partner: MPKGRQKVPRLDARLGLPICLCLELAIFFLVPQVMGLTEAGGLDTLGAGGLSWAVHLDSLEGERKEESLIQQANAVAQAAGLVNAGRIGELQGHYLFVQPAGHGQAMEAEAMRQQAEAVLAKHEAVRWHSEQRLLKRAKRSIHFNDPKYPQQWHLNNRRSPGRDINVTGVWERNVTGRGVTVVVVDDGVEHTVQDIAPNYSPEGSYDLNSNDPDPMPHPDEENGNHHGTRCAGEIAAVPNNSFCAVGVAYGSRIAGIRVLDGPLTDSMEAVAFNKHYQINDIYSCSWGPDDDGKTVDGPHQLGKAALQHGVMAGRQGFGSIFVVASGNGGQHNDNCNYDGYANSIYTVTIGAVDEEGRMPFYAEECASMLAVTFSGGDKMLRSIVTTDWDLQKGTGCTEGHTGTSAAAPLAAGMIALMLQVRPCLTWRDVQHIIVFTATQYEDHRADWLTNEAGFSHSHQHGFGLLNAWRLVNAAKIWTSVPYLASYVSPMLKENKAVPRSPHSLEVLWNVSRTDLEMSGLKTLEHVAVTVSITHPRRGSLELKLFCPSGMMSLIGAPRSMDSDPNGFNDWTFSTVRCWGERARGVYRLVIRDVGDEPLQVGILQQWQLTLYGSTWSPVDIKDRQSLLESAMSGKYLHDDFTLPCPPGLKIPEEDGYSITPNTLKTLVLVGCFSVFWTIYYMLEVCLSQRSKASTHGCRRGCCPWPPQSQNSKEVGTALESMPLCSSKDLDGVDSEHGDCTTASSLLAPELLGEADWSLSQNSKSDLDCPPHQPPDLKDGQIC
# B4: Growth/differentiation factor 11 (Mus musculus), Q9Z1W4 (parent)
# chain: B1 chain
# Variants of: B1
# Conditions: with PCSK6, P29122-1
row,Variant,effect of a mutation on the interaction
1,MVLAAPLLLGFLLLALELRPRGEAAEGPAAAAAAAAAAAGVGGERSSRPAPSAPPEPDGCPVCVWRQHSRELRLESIKSQILSKLRLKEAPNISREVVKQLLPKAPPLQQILDLHDFQGDALQPEDFLEEDEYHATTETVISMAQETDPAVQTDGSPLCCHFHFSPKVMFTKVLKAQLWVYLRPVPRPATVYLQILRLKPLTGEGTAGGGGGGRRHIRIRSLKIELHSRSGHWQSIDFKQVLHSWFRQPQSNWGIEINAFDPSGTDLAVTSLGPGAEGLHPFMELRVLENTKRSRRDLGLDCDEHSSESRCCRYPLTVDFEAFGWDWIIAPKRYKANYCSGQCEYMFMQKYPHTHLVQQANPRGSAGPCCTPTKMSPINMLYFNDKQQIIYGKIPGMVVDRCGCS [N297D],increasing interaction

# Variants of: B2
# Conditions: with Pcsk5, P41413-2
row,Variant,effect of a mutation on the interaction
1,MVLAAPLLLGFLLLALELRPRGEAAEGPAAAAAAAAAAAGVGGERSSRPAPSAPPEPDGCPVCVWRQHSRELRLESIKSQILSKLRLKEAPNISREVVKQLLPKAPPLQQILDLHDFQGDALQPEDFLEEDEYHATTETVISMAQETDPAVQTDGSPLCCHFHFSPKVMFTKVLKAQLWVYLRPVPRPATVYLQILRLKPLTGEGTAGGGGGGRRHIRIRSLKIELHSRSGHWQSIDFKQVLHSWFRQPQSNWGIEINAFDPSGTDLAVTSLGPGAEGLHPFMELRVLENTKRSRRDLGLDCDEHSSESRCCRYPLTVDFEAFGWDWIIAPKRYKANYCSGQCEYMFMQKYPHTHLVQQANPRGSAGPCCTPTKMSPINMLYFNDKQQIIYGKIPGMVVDRCGCS [N297D],increasing interaction

# Variants of: B3
# Conditions: with pcsk7_rat Pcsk7, Q62849
row,Variant,effect of a mutation on the interaction
1,MVLAAPLLLGFLLLALELRPRGEAAEGPAAAAAAAAAAAGVGGERSSRPAPSAPPEPDGCPVCVWRQHSRELRLESIKSQILSKLRLKEAPNISREVVKQLLPKAPPLQQILDLHDFQGDALQPEDFLEEDEYHATTETVISMAQETDPAVQTDGSPLCCHFHFSPKVMFTKVLKAQLWVYLRPVPRPATVYLQILRLKPLTGEGTAGGGGGGRRHIRIRSLKIELHSRSGHWQSIDFKQVLHSWFRQPQSNWGIEINAFDPSGTDLAVTSLGPGAEGLHPFMELRVLENTKRSRRDLGLDCDEHSSESRCCRYPLTVDFEAFGWDWIIAPKRYKANYCSGQCEYMFMQKYPHTHLVQQANPRGSAGPCCTPTKMSPINMLYFNDKQQIIYGKIPGMVVDRCGCS [N297D],increasing interaction

# Variants of: B4
# Conditions: with furin_human FURIN
row,Variant,effect of a mutation on the interaction
1,MVLAAPLLLGFLLLALELRPRGEAAEGPAAAAAAAAAAAGVGGERSSRPAPSAPPEPDGCPVCVWRQHSRELRLESIKSQILSKLRLKEAPNISREVVKQLLPKAPPLQQILDLHDFQGDALQPEDFLEEDEYHATTETVISMAQETDPAVQTDGSPLCCHFHFSPKVMFTKVLKAQLWVYLRPVPRPATVYLQILRLKPLTGEGTAGGGGGGRRHIRIRSLKIELHSRSGHWQSIDFKQVLHSWFRQPQSNWGIEINAFDPSGTDLAVTSLGPGAEGLHPFMELRVLENTKRSRRDLGLDCDEHSSESRCCRYPLTVDFEAFGWDWIIAPKRYKANYCSGQCEYMFMQKYPHTHLVQQANPRGSAGPCCTPTKMSPINMLYFNDKQQIIYGKIPGMVVDRCGCS [N297D],increasing interaction
